The values that follow come from article PMC8257674, “Structural basis of inhibition of a transporter from Staphylococcus aureus, NorC, through a single-domain camelid antibody” (Communications Biology, 2021).

Holding throughout (conditions): both partners purified
Assay [1] deals with T1, NorC WT (Staphylococcus aureus subsp. aureus COL …).
T1 construct: also called NorC wild-type; source: E. coli C41(DE3), extracted from membranes in DDM, purified (Ni-NTA, SEC in DM)
T1 chain: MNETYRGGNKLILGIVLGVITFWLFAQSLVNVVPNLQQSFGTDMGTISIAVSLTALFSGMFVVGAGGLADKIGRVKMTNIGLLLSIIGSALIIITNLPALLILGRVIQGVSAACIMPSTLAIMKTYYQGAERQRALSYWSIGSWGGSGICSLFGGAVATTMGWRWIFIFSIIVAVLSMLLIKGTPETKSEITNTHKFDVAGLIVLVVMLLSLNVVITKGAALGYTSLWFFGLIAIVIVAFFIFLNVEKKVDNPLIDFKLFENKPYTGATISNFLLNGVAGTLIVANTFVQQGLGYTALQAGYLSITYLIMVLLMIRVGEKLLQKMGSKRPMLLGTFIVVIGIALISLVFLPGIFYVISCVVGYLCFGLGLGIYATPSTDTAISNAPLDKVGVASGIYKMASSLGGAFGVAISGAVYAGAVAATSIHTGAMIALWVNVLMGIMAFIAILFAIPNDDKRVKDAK
In words: ITC; ICab (200 uM, syringe) titrated into NorC WT (20 uM, cell) with 1 mM TPP in both cell and syringe; 25 °C; 20 mM HEPES pH 7.0, 200 mM NaCl, 4 mM n-decyl-beta-D-maltopyranoside; 16 injections of 2.5 ul; one set of sites model. In general terms: In ITC the heat of successive injections is recorded.

Assay [2] has as its target T1, NorC WT. The experiment in a line: ITC; ICab (200 uM, syringe) titrated into NorC WT (20 uM, cell); 25 °C; 20 mM HEPES pH 7.0, 200 mM NaCl, 4 mM n-decyl-beta-D-maltopyranoside; one set of sites model.
For assay [3], the target named is T2, NorC WT (wild-type) (Staphylococcus aureus subsp. aureus COL …).
T2 chain: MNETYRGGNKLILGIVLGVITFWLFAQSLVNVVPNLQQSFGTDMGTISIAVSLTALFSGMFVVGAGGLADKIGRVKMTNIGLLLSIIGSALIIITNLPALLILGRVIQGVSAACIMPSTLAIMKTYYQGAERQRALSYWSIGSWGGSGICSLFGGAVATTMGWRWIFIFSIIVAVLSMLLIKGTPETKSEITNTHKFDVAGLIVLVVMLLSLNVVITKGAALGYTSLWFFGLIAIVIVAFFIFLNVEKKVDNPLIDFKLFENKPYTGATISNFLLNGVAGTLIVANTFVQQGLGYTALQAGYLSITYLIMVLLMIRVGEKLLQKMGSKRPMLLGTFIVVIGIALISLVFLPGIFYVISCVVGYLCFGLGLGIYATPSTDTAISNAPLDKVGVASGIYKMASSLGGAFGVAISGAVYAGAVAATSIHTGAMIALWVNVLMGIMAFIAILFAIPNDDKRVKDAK
In words: ITC; ICab (200 uM) in the syringe titrated into NorC WT (20 uM) in the cell, with 1 mM TPP in both cell and syringe; 25 °C; 20 mM HEPES pH 7.0, 200 mM NaCl, 4 mM n-decyl-beta-D-maltopyranoside; 16 injections of 2.5 ul; one set of sites model.

The target in assay [4] is T2, NorC WT (wild-type). In words: ITC; ICab (200 uM) in the syringe titrated into NorC WT (20 uM) in the cell; 25 °C; 20 mM HEPES pH 7.0, 200 mM NaCl, 4 mM n-decyl-beta-D-maltopyranoside; one set of sites model.
For assay [5], the target named is T3, NorC WT (wild-type) (Staphylococcus aureus subsp. aureus COL …).
T3 construct: not shown: His8, C-terminal, kept
T3 chain: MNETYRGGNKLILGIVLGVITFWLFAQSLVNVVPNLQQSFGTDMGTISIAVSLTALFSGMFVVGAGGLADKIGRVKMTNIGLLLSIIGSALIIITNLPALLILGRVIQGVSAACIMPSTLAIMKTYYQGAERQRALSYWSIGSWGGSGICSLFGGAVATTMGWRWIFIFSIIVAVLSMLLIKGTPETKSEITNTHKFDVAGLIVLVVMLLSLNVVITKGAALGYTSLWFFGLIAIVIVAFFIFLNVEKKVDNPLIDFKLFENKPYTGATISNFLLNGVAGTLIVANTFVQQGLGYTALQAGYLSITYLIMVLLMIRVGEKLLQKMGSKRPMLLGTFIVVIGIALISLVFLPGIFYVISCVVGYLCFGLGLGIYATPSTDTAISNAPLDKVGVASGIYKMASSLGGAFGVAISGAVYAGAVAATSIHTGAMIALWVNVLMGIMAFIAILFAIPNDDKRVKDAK
In words: ITC; as without TPP+, but in the presence of 1 mM TPP+; 16 injections of 2.5 ul; 25 °C; 20 mM HEPES pH 7.0, 200 mM NaCl, 4 mM DM.

Assay [6] deals with T3, NorC WT (wild-type). In words: MST; 10 nM transporter labelled with red Tris-NTA dye, ICab titrated from 5 uM in twofold dilutions; Monolith NT.115 premium-coated capillaries; single-site binding model.

B1: single-domain Indian camelid antibody (ICab) (VHH)
VHH: QVQLEESGGGSVQAGGSLRLSCAASGYMYSTYSTYCMGWFRQAPGKEREGVAFIKRGDHSTYYTDSVKGRFTISQDSAKNTVSLQMNNLKPEDTAIYYCAADFAHSFLLSVHSGAGQYSYWGQGTQVTVSS
For B1, in the assay with NorC WT [1], the stoichiometry N (usually the number of molecules, sites or subunits per partner or assembly) stood at 1.14 ± 0.012. In the assay with NorC WT [2], the affinity, expressed as Kd, was 46.6 ± 8.9 nM and the “stoichiometry N” value was determined as 1.04 ± 0.005.

B2: single-domain Indian camelid antibody (ICab) (VHH)
VHH: QVQLEESGGGSVQAGGSLRLSCAASGYMYSTYSTYCMGWFRQAPGKEREGVAFIKRGDHSTYYTDSVKGRFTISQDSAKNTVSLQMNNLKPEDTAIYYCAADFAHSFLLSVHSGAGQYSYWGQGTQVTVSS
notes: also called single-domain camelid antibody
Turning to B2, the “stoichiometry N” value with NorC WT (wild-type) [3] was found to be 1.14. In the assay with NorC WT (wild-type) [4], the Kd (commonly the constant that tells how readily two partners part at equilibrium) stood at 46.6 nM and the “stoichiometry N” value worked out at 1.04.

B3: Zn2+-bound single-domain Indian camelid antibody (ICab) (VHH)
VHH: QVQLEESGGGSVQAGGSLRLSCAASGYMYSTYSTYCMGWFRQAPGKEREGVAFIKRGDHSTYYTDSVKGRFTISQDSAKNTVSLQMNNLKPEDTAIYYCAADFAHSFLLSVHSGAGQYSYWGQGTQVTVSS
notes: also called single-domain camelid antibody; vhh
Consider B3, for which the values for the Kd with NorC WT (wild-type) [5] and with NorC WT (wild-type) [6] were 35.6 ± 16 nM and 37.5 ± 16 nM, respectively.
